Results from publication PMC4990258, “Mutations at the Subunit Interface of Yeast Proliferating Cell Nuclear Antigen Reveal a Versatile Regulatory Domain” (PLoS ONE, 2016).

Target: T1, GST-Rev1 (full-length Rev1) (S. cerevisiae, UniProt P12689 1-985)
T1 construct: Rev1, yeast, full-length; Held on the beads by GST during the incubation; Rev1 was cut from GST by PreScission protease only at the elution step; not shown: GST, N-terminal, kept
T1 sequence (looked up): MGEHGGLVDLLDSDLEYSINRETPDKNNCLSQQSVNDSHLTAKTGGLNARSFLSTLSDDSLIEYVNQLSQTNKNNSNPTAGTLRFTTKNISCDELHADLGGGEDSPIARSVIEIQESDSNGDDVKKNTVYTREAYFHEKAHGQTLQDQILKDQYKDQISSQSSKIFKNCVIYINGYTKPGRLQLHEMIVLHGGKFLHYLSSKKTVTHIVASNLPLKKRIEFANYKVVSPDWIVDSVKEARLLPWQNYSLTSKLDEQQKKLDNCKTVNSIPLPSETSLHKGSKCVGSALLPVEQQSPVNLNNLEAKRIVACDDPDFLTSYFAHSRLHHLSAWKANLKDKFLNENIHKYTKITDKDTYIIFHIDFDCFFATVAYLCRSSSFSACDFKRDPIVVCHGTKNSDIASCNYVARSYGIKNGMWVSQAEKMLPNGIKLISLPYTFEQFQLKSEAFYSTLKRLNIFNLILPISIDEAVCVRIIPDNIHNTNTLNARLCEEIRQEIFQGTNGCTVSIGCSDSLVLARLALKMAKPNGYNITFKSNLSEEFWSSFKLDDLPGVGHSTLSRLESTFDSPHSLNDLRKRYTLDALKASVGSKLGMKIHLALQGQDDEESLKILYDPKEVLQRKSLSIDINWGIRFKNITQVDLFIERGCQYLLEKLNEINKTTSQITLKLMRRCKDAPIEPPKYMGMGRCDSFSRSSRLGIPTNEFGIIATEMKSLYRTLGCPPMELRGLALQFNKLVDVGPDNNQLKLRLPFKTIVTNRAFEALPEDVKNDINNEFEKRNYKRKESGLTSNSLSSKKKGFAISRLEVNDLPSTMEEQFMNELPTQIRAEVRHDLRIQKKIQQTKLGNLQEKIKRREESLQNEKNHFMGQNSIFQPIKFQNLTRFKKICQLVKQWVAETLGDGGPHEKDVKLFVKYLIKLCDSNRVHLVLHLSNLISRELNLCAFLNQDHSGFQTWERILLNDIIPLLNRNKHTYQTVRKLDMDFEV
Assay: pull-down; GST-Rev1 (5 μg) immobilised on glutathione-Sepharose beads, incubated with purified PCNA (3 μg) overnight on ice; 50 mM Tris/HCl pH 7.5, 100 mM NaCl, 1 mM EDTA, 1 mM DTT, 10% glycerol, 0.01% Nonidet P-40; five washes; eluted by PreScission protease cleavage of Rev1 from GST; SDS-PAGE
Settings: both partners purified

B1: wild type PCNA (proliferating cell nuclear antigen, Saccharomyces cerevisiae) (natural protein, S. cerevisiae)
chain: MLEAKFEEASLFKRIIDGFKDCVQLVNFQCKEDGIIAQAVDDSRVLLVSLEIGVEAFQEYRCDHPVTLGMDLTSLSKILRCGNNTDTLTLIADNTPDSIILLFEDTKKDRIAEYSLKLMDIDADFLKIEELQYDSTLSLPSSEFSKIVRDLSQLSDSINIMITKETIKFVADGDIGSGSVIIKPFVDMEHPETSIKLEMDQPVDLTFGAKYLLDIIKGSSLSDRVGIRLSSEAPALFQFDLKSGFLQFFLAPKFNDEE
notes: PCNA (POL30 gene product), Saccharomyces cerevisiae, wild type; the oligomeric state of the purified protein was not measured here; also called wt PCNA; yeast PCNA; source: yeast BJ5464, overexpressed as GST fusion, purified on glutathione-Sepharose 4B, GST removed by PreScission protease; not shown: GST, N-terminal, cleaved
binding result: binds
